# Results taken from the nanobody polyreactivity screen of Harvey et al. (2022).
# Assay: yeast display, Sf9 membrane polyspecificity reagent, FACS + sequencing; frameworks hold sequencing errors
# How it was run: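 Galactose-induced (36–48 hours) yeast carrying a synthetic nanobody display library were exposed to 10% biotinylated, detergent-solubilized Sf9 membrane reagent at 4 °C for 1 hour. FACS followed streptavidin microbead enrichment, using low and high (top ~1%) gates for expression (anti-HA) and reagent binding (streptavidin). Colony PCR, MiSeq 2 × 250 sequencing and CDR-length filtering followed. Labels for polyreactivity reflect the gate of origin.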
row,Sequence,polyreactivity (PSR sort gate)
1,QVQLVESGGGLVQAGGSLRLSCAASGIIFGNYAMGWYRQAPGKERELVAAITNGSSTNYADSVKGRFTISRDNAKNTVYLQMNSLKPEDTAVYYCARDGIGADGYDYWGQGTQVTVSS,low polyreactivity
2,QVQLVESGGCLVQAGGSLRLSCAASGRTFSPNAMGWYRQAPGKERELVAAISWISGGRTYYADSVKGRFTISRDNAKNTVYLQMNSLKPEDTAVYYCAAEYYYTYGYWGQGTQVTVSS,high polyreactivity
3,QVQLVESGGGLVQAGGSLRLSCAASGRTFYRNAMGWYRPAPGKERELVAAITSSGASTYYADSVKGRFTISRDNAKNTVYLQMKSLKPEDTAVYYCAAKYVFSVGNYRYDYWGQGTQVTGSS,low polyreactivity
4,QVQLVESGGGLVQAGGRLRLSCAASGSIFAGYAMGWYRQAPGKERELVAASSTDYADSVKGRFTISRDNAKNTVYLHMNSLKPEDTAVYYCAKVGFGIPGGFYYWGQGTQVTVSS,low polyreactivity
5,QVQLVESGGGLVQAGGSLRLSCAASGRTLIDNAKGWYRPAPGKERELVASISITNTYYADSVKGRFTISRDNAKNTVYLQMNSLKPEDTAVYYCNAEARPRGVDVEEAYFRYDYWGHGTQVTVSS,low polyreactivity
6,QVQLVESGGGLVQAGGSLRLSCAASGNIFDTYVMGWYRPAPGTERELVAAISSAGSTNYADSVKGRFTISRDNAKNTVYLQMNSLKPEDTAVYYCNADYWYYGYDYWGQGTQVTVSS,low polyreactivity
7,QVQLVESGGGLVQAGGSLRLSCAASGRTFEGYAMGWYRQAPGKERELVAAISGSSGSTYYADSVKGRFTISRDNAKNTVYLQMNSLKPEDTAVYYCNADYDWPGGSDYWGQGTQVTVSS,low polyreactivity
8,QVQLVESGGGLVQAGGSLRLSCAASGSTFNHYAMGWYRQAPGKERELVAAITKSGGSTYADSVKGRFTISRDNAKNTVYLQMNSLKPEDTAVYYCAAGRRKYGTKGRGDYWGQGTQVTVSS,low polyreactivity
9,QVQLVESGGGLVQAGGSLRLSCAASGSTFADYAMGWYRQAPGKERELVAAITSSGGDTYYADSVKGRFTISRDNAKNTVYLQMNSLKPEDTAVYYCAVVDTLYDSKYDYWGQGTQVTVSS,low polyreactivity
10,QVQLVESGGGLVKAGGSLRLSCAASGSTFYNYAMGWYRQAPGKERELVAAISTRGGSTYYADSVKGRFTISRDNAKNTVYLQMNSLKPEDTAVYYCAADGRGGHDDYWGQGTQVTVSS,high polyreactivity
11,QVQLVESGGGLVQAGGSLRLSCAASGRIFPWNTMGWYRQAPGKERELVAGINNGDRTYYADSVKGRFTISRDNENNTVYLQMNSLKPEDTAVYYCAARSPPSAYTYTTWEYDYWGQGTQVTVSS,low polyreactivity
12,QVQLVESAGGLVQAGGSLRLSCADSGRTFAYNVIGWYRQAPGKERELVAGISFGAGTTYYADSVKGRFTISRDNAKNTVYLQMNSLKPEDTAVYYCATRRRGTRYPRGYDYWGQGTQVTVSS,high polyreactivity
13,QVQLVESGGGLVQAGGSLRLTCAASGYIFNQYTMGWYRQAPGKERELDADISSGGSTKYADSVKVRFTISRDNAKNTVYLQMISRKAEDTAFYYCNAEYVYGYPTAYDWEYDYWGQGTQVTLSS,high polyreactivity
14,QVQLVESGGGLVQAGGSLRLSCAASGRIIANYAMGWYRQAPGKEREVVAGISSGGSTNYADSVKGRFTISRDNAKNPVYLQMNSLKPEDTAVYYCAKDPAYRVSKYDYWGQGTQVTVSS,low polyreactivity
15,QVQLVESGGGLVQAGGSLRLSCAASGRTFGKYAMAWYRQAPGKERELVAAITTRVVITYYADSVKGRFTISRDNAKNTVYLQMNSLKPEDTAVYYCAADPEKIYRPVNHYYYWGQGTQVTVSS,low polyreactivity
16,QVQLVESGGGLVQAGGSLRLSCAASGSTFSLNAMGWYRQAPGKERELVAAISNVGDTYYADSVKGRFTISRDNAKNTVYLQMNSLKPEDTAVYYCAADGASYYYEYDYWGQGTQVTVSS,low polyreactivity
17,QVQLVESGGGLVQAGGSLRLSCAASGRTFSLNAMGWYRQAPGKERELVAAINRGGTTYYADSVKGRFTISRDNAKNTVYLQMNSLKPEDTAVYDCAARVWGRWAGSYAWWHGYNSWGQGTQVSVSS,high polyreactivity
18,QVQLVESGGGLVQAGGSLRLSCAASGSIFLEYAMGWYRQAPGKERELVAAISSSGGSTYYADSVKGRFTISRDNAKNTVYLQMNSLKPEDTAVYYCAAGKSKYGVRGYYWGQGTQVTVSS,high polyreactivity
19,QVQLVESGGGLVQAGGSLRLSCAASGRTFVSHAMGWYRQAPGKERELVAAITNGGRTYYADSVKGRFTISRDNAKNTVYLQMNSLKPEDTAVYYCAAYVPTFKDRSRWYGRKYDYWGQGTQVTVSS,low polyreactivity
20,QVQLVESGGGLVQAGGSLRLSFAASGRTFYINDMGWYRQAPGKERELVAAITWRGGSTYYADSVKGRFTISRDNAMNTVYLQMNSLKPEDTAVYYCAAYISLYWWYDYWGQGTQVTVSS,low polyreactivity
21,QVQLVESGGGLVQAGGSLRLSCAASGITFYVYAMGWYIPAPGKERELVAAINYDSGSTYYADSVKGRFTISRDNAKNTVYLQMNSLKPEDTAVYYCATDGVNPFYAYDYWGQGTQVTVSS,low polyreactivity
22,QVQLVESGGGLVQAGGSLRLSCAASGFTIWYTMGSYRQAPGKEREFLAAITSGGGSTYYAESVKGRFTISRDNAKNTVYFQMNSLKPEDTAVYYCAARERSYRAYGYWRQGTQVTVSS,high polyreactivity

row,Sequence,polyreactivity (PSR sort gate)
1,QVQLVESGVGLVQAGGSLRLSCAASGRNFGTNAIGWYRPAPGKERELVAAISSSGGSTYYADSVKGRFTISRDNAKNTVYLQMNSLKPEDTAVYYCAKGWHRGVGFGYWGQGTEVTVSS,high polyreactivity
2,QVQLVESGGGLVQAGGSLRLSCAASGRTYIYNAMGWYRQAPGKERELVAAISFRGGSTYYADSVKGRFTISRDNAKNTVYLQMNSLKPEDTAVYYCNAVRFYRYGWGQGTQVTVSS,high polyreactivity
3,QVQLVESGGGLVQAGGSLRLSCAASGSTLYRYAMGWYRQAAGKERELVATITRSGGSTYYADSVKGRFTISRDNAKNTVYLQMNSLKPEDTAVYSCAAYRKVGGFSRGDYWGQGTQVTVSS,high polyreactivity
4,QVQLVESGGGLVQAGGSLRLSCAASGSTFHYYAMGWYRQAPGKERELVAAINSGARTYYADSVKGRFTISRDNAKNTVYLQMNSLKTEDTAVYYCNKAFQWSGGQVSYDYWGQGTQVTVSS,low polyreactivity
5,QFQLGESGGGLVQAGGSLRLSCAASGYIFKKNAMGWYRQAPGYERELVAVISARGGRTYYADSVKGRFTISRDKGKNTVYLQMNSLKPEDTAVYYCAAVSLGITYDYWGQGTQVTVSS,low polyreactivity
6,QVQLVESGGGLVQAGGSLRLSCAASGRIFVSNAMGWYRQAPGKERELVASISWSGGSTYYADSVKGRFTISRDNAKNTVYLQMNSLKPEDTAVYYCNRVRYPRQGFRLYYWGQGTQVTVSS,high polyreactivity
7,QVQLVESGGGLVQAGGSLRLSCAASGSILVYNAMGWYRQAPGKERELVDAISNTGRTYYADSVKGRFTISRDNAKNTVYLQMNSLKPEDTAVYYCADRFYRVLHRFGYWGQGTQVTVSS,high polyreactivity
8,QVQLVESGGGLVQAGVSLRLSCAASGSFFGYYTMGWYRQAPGTERELVAAISASGGSTYYADSVKGRFTISRDNANNTVYLQLNSLKPEDTAVYYCAATSAANFPRGYYYWGQGTQVTVSS,high polyreactivity
9,QVQLVESGGGLVQAGGRLRLSCAASGIIFGGYSMGWYRQAPGKERELVADITWSGGSTTYADSVKGRFTISRDNAKNTVYLQMNSLKPEDTAVYYCAAEDYYIYREPYDYWGQGTQVTVSS,low polyreactivity
10,QVQLVESGGGLVQAGGSLRLSCAASGFTFTPNAMGWYRQAPGKERELVAAITWNGGTTYYADSVKGRFTISRDNAKNTVYLQMNSLKPEDTAVYYCNADGLILYDYWGQGTQVTVSS,low polyreactivity
11,QVQLVESGGGLVQAGGSLRLSCAATGHTFHGYAMGWYRPAPGKERELVAAITSTGGSTHYADSVKGRFTISRDNAKNTVYLQMNSLKPEDTAVYYCAKRSYGLTRAYSAGNYWGQGTQVTVSS,low polyreactivity
12,QVQLVESGGGLVQAGGSLRLSCAASGSTFSNNTMGWYRQAPGKERELVAAISWRGTRTYYADSVKGRFTISRDNAKNTVYLQMNSLKPEDTAVYYCNKLPTYPDYGYDSWGQGTQVTVSS,high polyreactivity
13,QVQLVESGGGLVQAGGSLRLSCAASGSTFAEYAMGWYRQAPGKERELVATITSSGGGTYYADSVKGRFTISRDNAKNTVYLQMNSLKPEDTAVYYCGQGTQVTVSS,low polyreactivity
14,QVQLVESGGGLVQAGGSLRLSCAASGFTFGENDMGWYRQAPGKERELVATISYSGDSTYYAVSVKGLFTISRVNGKNTVYLHMNSLKPEDTAVYYCAAPLPHRVYDEGYWRQGTQVTVSS,low polyreactivity
15,QDQLEESGGCLVQAGGSLRLSCAASGRIFYGYVMRWYRQAPGKERELVAAINQSGTSTYYADSVKGRFTISRDYAKNTVYLQMNSLKPEDTAVYYCAKDWAYRRHWVGFYYWGQGTQVTVSS,low polyreactivity
16,QVQLVESGGGLVQAGGSLRLSCAASGRTINRYDMGWYRQAPGKERELVAAISTSGGTTYYADSVKGRFTISRDNAKNTVYLQMNSLKPEDTAVYYCNARALAYWGQGTKVTVSS,high polyreactivity
17,QVQLVESGGGLVQAGGSLRLSCAASGSIFGLYAMGWYRQAAGKERELVAAISASGGSTYYADSVKGRFTISRDNAKNTVYLQMNSLKPEDTAVYYCAVKWRGGPQRGFNYWGQGTQVTVSS,high polyreactivity
18,QVQLVESGGGLVQAGGSLRLSCAASGRIFRENAMGWYRQAPGKERELVASNSLSGTSTYYADSVKGRFTISRDNAKNTVYLQMNSLKPEDTAVYYCNGERLSTDPYDRNYWGQGTQVTVSS,low polyreactivity
19,QVQLVESGGGLVQAGGSLRLSCAASGSTFKQYAMGWYRQAPGKERELVADINVRDGGTYYADSVKGRFTISRDNAKNTVYLQMNSLKPEDTAVYYCAKDYYACYWEMDYWGQGTQVTVSS,low polyreactivity
20,QVQLVESGGGLVQAGGSLRLSCAASGFILAGYAMGWSRQAPGKERELVAAINSRGTRTYYADSVKGRFTISRDNAKNTVYLQMNSLKPEDTAVYYCAVHVWGTYGSWEYYYWGQGTQVTVSS,high polyreactivity
21,QVQLQDSGGGLVQAGGSLRLSCAASGTIFWYSDLGWYRQAPGKERKFVAGIGFGSNSNFADSVRGRFTISRDNAKNTVYLQMNSLKPEDTAVYYCAAVWFDYSTHRYWGQGTQVTVSS,high polyreactivity
